# ± gives the uncertainty stated by the source.
# Assay: amyloid nucleation score (Sup35N fusion, yeast selection) (log enrichment); library NNK3; higher = more nucleation; inactive = no reads after selection
# Outline: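 The nucleation score equals the log enrichment of output over input reads from DiMSum, centred on the mode score of non-aggregating sequences. It was computed only for sequences with 100 or more input reads. The reads came from Illumina sequencing of plasmid inserts from psi-negative yeast expressing Sup35N fused to peptides of 20 random codons, induced with 100 μM copper sulfate for 24 hours and grown 7 days at 30°C without adenine and uracil.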
row,Substance,amyloid nucleation score
1,VQPVGSSKGVRGVE,0.983 ± 0.2
2,PMKGSSMSTPTANIRQ,-0.135 ± 1.1
3,EGSYVYIKDYI,inactive
4,YLGIFWRFFLRFSRGVTVWL,-0.488 ± 0.96
5,MRMVTPLSGRPRWYLHF,inactive
6,RIEAFLAP,1.12 ± 0.18
7,VYSLFKVELISILGRMKITK,inactive
8,NFLVRTPGRNERG,inactive
9,VHGPKNCWKCDFKER,inactive
10,GQVYMSVRV,inactive
11,NSIQCKRTVCILSGSTVMRE,inactive
12,SFSCMKDSGPNMCKGLRVKQ,inactive
13,VSAAYLRTVRQ,inactive
14,MFMVHQVDTERW,inactive
15,TTCWVYMLVILA,1.38 ± 0.077
16,SMSWRSHEAMCTGSYFNLCD,inactive
17,LTLITPPTRS,inactive
18,KGGDELYFEELDEWSQGSRR,inactive
19,ISAGNTRSTYRLGSWDTSRE,inactive
20,NRIGSKTCKFFMALGM,inactive
21,TKHPLYM,inactive
22,CEISLV,0.767 ± 0.16
23,MYFEECGRCFNRSFNYGVNQ,inactive

row,Substance,amyloid nucleation score
1,CSIVVNLMYLLVDACMGPKG,inactive
2,VFSMWFSGLTTSIYRSLED,inactive
3,ESDAFKLCAYDLNIMNISRF,inactive
4,IHRNNNFFRRGYVWSYEEHH,inactive
5,YGMYNMTGNMAFKTPARYIF,inactive
6,KSFRIMMLRSWMLRLLKYQL,inactive
7,GVSLATSYKMLLGVIVLGME,0.697 ± 0.18
8,HYGEFHKTNCARYRYFI,inactive
9,ERLIPLPHISVIS,inactive
10,TLRGMGQHRQR,inactive
11,LLVRMILNYKELLVTAILQV,inactive
12,RRLVMDTTRLACKRYWRFLN,inactive
13,LRGFMISSWDFFADGSDVRL,inactive
14,LTSSEQDAITLTTCGISECA,inactive
15,MSSSIILWNFCNMDRCSLVG,2.23 ± 0.087
16,FTAWTLLLSGMFVIASANMA,inactive
17,FGSVERFLLDPLTGHVGRFF,inactive
18,FYCLHSMLKMGEDVRAMNLD,inactive
19,YYYQNRYFELRHLPEFSS,inactive
20,LIIGHVFGFHGYVDWDDGTC,inactive
21,CYVPVKGLYMPPYGTLRLWG,inactive
22,FWLRAVSLSWLMIEKKYMLR,inactive
23,RCYKKVYLMLAVRLAPFGLG,inactive

row,Substance,amyloid nucleation score
1,GGNLFSSVS,inactive
2,SALEVFLWNKYLFVDVTLLL,inactive
3,FARVRVNISFPISKSFCNIM,2.34 ± 0.083
4,QSLLSSLLGSYSRLEKLNVD,inactive
5,LTRFRDIRFLINKNGACKEW,-0.213 ± 0.71
6,GMCWVDFVNNTASCVWFPLC,inactive
7,NTIVLILHYFYNSMLASSVI,inactive
8,GCHLVSCRRTGAL,inactive
9,LRGNECRPGVELPVTVSKFR,inactive
10,KFTYSLKLCADFGFLSTWKV,inactive
11,VKLSL,inactive
12,VALLTYFWYGPIKGVAS,inactive
13,DLVFWTINWSPGAHGTTSSG,inactive
14,ARHSCA,inactive
15,TLHCSVYMCTTYGNTHLYVH,2.2 ± 0.063
16,VKWKDVDLFGLC,inactive
17,VSLVWDMHWHSYRVSSELCR,inactive
18,HKLAKTNRSSIIVCGNRVLL,0.916 ± 0.11
19,NDHVRAFTDIFMCTMAIMND,inactive
20,MGGLIFVSLKAWSIILHYNK,inactive
21,YLIEYTSSNKPMAPLSDDTQ,inactive
22,ASTEKGGPNDGTCWYPYCTA,inactive
23,VWCLFTSLSS,inactive

row,Substance,amyloid nucleation score
1,SSGRSSPQWG,inactive
2,EGWIRVFTEFNFSS,0.263 ± 0.46
3,DVLGCPNMEVCWSGFLSQNY,inactive
4,SSVEHWPQNVFNRYFLYGVY,inactive
5,MWVMGNDS,inactive
6,HNLTNLVSILGNAS,inactive
7,NLADAVEENGGYFHFTFPKF,inactive
8,TLSKILLLSRYLYTRLKVRL,inactive
9,WLQGCRSRWAVVL,inactive
10,YHCAFVSINSECMVDGLTLC,0.883 ± 0.15
11,YESHLSRRLLIMYIGAFLGR,inactive
12,LVIWYLQSLYSPGINCQDLR,inactive
13,SRCWVYRKRTPCNVY,inactive
14,VTFSCLYVFFYRQVIRCFGM,0.059 ± 0.26
15,GSSVVS,inactive
16,YFFIRVIALYLRVELSL,inactive
17,LYDSSYMVDIDSYTLENCRS,inactive
18,SPALQMWKACTWLNRTLSPV,0.582 ± 0.15
19,GMAEFALQWIRMIGRL,0.214 ± 0.45
20,LYMNFSMDGIASVSLGVLRL,0.633 ± 0.19
21,EIVSWVDHFYWTWTGYHKCW,-0.886 ± 1
22,ETPSALCILYVFYCHAYWSH,inactive
23,GWHYMYSGYANYIGFSLPLY,inactive

row,Substance,amyloid nucleation score
1,AFSKRSSWNNHFICVNDVVQ,inactive
2,MNWGYILLYVWDVSKNRYGF,inactive
3,NPIYDSQLPATSCMQAFNAF,inactive
4,ANHDVLADVCRLSRRGVLRR,inactive
5,RRCSIFLVVDIAGQLQRFMS,inactive
6,FGTGDMCKQCRHDVVRHSCL,inactive
7,NSRYQILITLDLC,inactive
8,DKSMIFVFI,0.864 ± 0.22
9,LITEGYAYFLNWVFRYISYW,inactive
10,NIPVSYYVVNGLIAEMLFIS,0.409 ± 0.27
11,YTWLAFRFSTSLHPRYSNIG,inactive
12,FFISDVGETC,inactive
13,GSYYWGGIGFTSEI,0.846 ± 0.14
14,RMFKFGTCYKSVGPTKRAEC,inactive
15,IFIQLLPYVFSTVEVSDFVG,0.625 ± 0.38
16,EISTVLNLHVRRIAGRFVMK,inactive
17,SRFYTL,inactive
18,MTFRFNVMLVCLWRATNCFL,inactive
19,LLRSQASTATGYH,inactive
20,CYFSIYYYSYLLFRMLGVKW,inactive
21,DSFNLSDSGWSTLYIRAWDG,inactive
22,ILILFYLRFHNIRRYTCTFR,inactive
23,MGSSFGGVLVSISVSWGCGF,-0.012 ± 0.51

row,Substance,amyloid nucleation score
1,TNYFESFY,-0.052 ± 1.2
2,VAQRELWEEAIRCRYEH,inactive
3,CTVGIYLLNLC,2.45 ± 0.084
4,GIYRYVQGWHDAPHGGNCTE,inactive
5,QSRMPCSLFILVNGDHDDMA,inactive
6,EFFSCYTEYPFRPAFLILTT,inactive
7,FGMVFHISIACKWTGFSMR,inactive
8,RMDADI,inactive
9,NWVVFFTYMAHHE,0.166 ± 0.26
10,VCYKPFTSVYLVCTYHLFKS,inactive
11,SDLCRSMSNQFSELSSNDFV,inactive
12,ADKRSMMWKFMFSRFCGRVT,inactive
13,SGDPSSLEDIGFVIYWRIYI,inactive
14,DECMARLNDWEGYAKD,inactive
15,PVRIVLVKPGIFMLDVTYSP,inactive
16,TFDSYPFVKGGISWPNMKYL,inactive
17,FPKLWLFNYYVNRRIRSSSF,inactive
18,TDTLCDWYLPNRRWIKDNEW,inactive
19,YIYRKCVD,inactive
20,VNDSAGVKLAVDCERTRKGG,-0.5 ± 0.98
21,LPSVDVRKTI,inactive
22,LSTQNRISASREMMDTDILG,0.8 ± 0.13
23,WPLRGRSMLQWLSCHIQWAG,inactive

row,Substance,amyloid nucleation score
1,MMNGVGAWASFGLLNNYGGN,0.291 ± 0.29
2,DSNLVFFGSIFFTVLMWLTK,inactive
3,NSYIFVQALMTFGDLTWAFH,2.34 ± 0.073
4,VRNRWA,inactive
5,VLKDNF,inactive
6,IVYILRFRTSMLC,inactive
7,IFNNLTGFNNKGS,inactive
8,YYVTQGVRVGQYLTNRERDE,-0.195 ± 0.44
9,LSYQDVWGSYGICEGSVWYS,inactive
10,VLSFLPCGLIPIISVALWCC,1.17 ± 0.099
11,VIGHMIGMDY,inactive
12,HLAMWFNHLSLDCL,inactive
13,VGNYINVANMYSWGVIIRND,2.39 ± 0.072
14,PTNTNCLNVLG,inactive
15,VICKAPGRPGHLCCKCIAVH,inactive
16,LWIVLQVHSFDVRFAQGFHI,0.613 ± 0.17
17,ICGNPLVLLMNNSVRLG,0.092 ± 0.64
18,IGDMSLLLTCGGWSLIQLQA,inactive
19,LFVKMR,-0.219 ± 0.32
20,RTRSVLQIWLSFMMLCQACW,-0.534 ± 1.5

# Source: the supplement of paper PMC12042874
